# Measured values taken from patent US20140348834A1 (published 2014).
# Read-outs that look alike come from different tables or passages of the source.
# T1: mouse IL-17A (mouse, UniProt Q62386 26-158, limits assumed)
# T1 construct: Purified recombinant protein in SPR; also called MuIL-17A; murine IL-17A
# T1 sequence (looked up): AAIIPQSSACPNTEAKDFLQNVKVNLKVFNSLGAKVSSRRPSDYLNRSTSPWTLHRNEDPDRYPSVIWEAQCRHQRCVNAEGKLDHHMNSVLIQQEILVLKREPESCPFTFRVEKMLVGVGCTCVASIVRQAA
# T2: rat IL-17A (rat, UniProt Q61453 18-150, limits assumed)
# T2 construct: Purified recombinant protein in SPR
# T2 sequence (looked up): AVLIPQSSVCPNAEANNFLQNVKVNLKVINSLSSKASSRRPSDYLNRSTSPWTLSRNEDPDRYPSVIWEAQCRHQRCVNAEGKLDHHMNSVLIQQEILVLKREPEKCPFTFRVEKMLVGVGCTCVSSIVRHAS
# Columns and labels:
# human IL-17A [1] = molecular target: T3, human IL-17A (human, UniProt Q16552 24-155); assay: cell-based or functional assay
# human IL-17A [2] = molecular target: T3, human IL-17A; assay: hIL17A ELISA
# human IL-17A [3] = molecular target: T3, human IL-17A; assay: cell-based or functional assay; remark: listed apart in the source
# cynomolgus monkey IL-17A [4] = molecular target: T4, cynomolgus monkey IL-17A (cynomolgus monkey, UniProt A0A2K5TTB0 24-155); assay: cell-based or functional assay
# human IL-17A [5] = molecular target: T3, human IL-17A; assay: SPR (Biacore 3000), antibody captured by anti-Fc, antigen in solution;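 further: purified recombinant IL-17 antigens flowed over captured antibodies in HBS-EP buffer, global Langmuir one-to-one fit of association and dissociation phases, KD derived from koff over kon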
# cynomolgus monkey IL-17A [6] = molecular target: T4, cynomolgus monkey IL-17A; assay: as above
# mouse IL-17A = molecular target: T1, mouse IL-17A; assay: as above
# human IL-17A/F = molecular target: T5, human IL-17A/F (human, UniProt Q16552 24-155; Q96PD4 31-163); assay: as above
# T5 construct: Recombinant; biotinylated in the ELISA; also called hIL-17A/F; HuIL-17A/F
# rat IL-17A = molecular target: T2, rat IL-17A; assay: as above
# T4 sequence (A0A2K5TTB0 entry or part of it): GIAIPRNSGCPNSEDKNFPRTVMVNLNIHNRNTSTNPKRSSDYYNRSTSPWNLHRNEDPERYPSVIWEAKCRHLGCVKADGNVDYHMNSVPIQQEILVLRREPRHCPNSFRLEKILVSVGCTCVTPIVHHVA
# T3 sequence (Q16552 24-155): as the sequence (A0A2K5TTB0 entry or part of it) above, with A3T, S8P, S34N, V77I, K78N, R104P counted along it
# T5 sequence (Q16552 24-155, chain 1 of 2): as the sequence (A0A2K5TTB0 entry or part of it) above, with A3T, S8P, S34N, V77I, K78N, R104P counted along it
# T5 sequence (Q96PD4 31-163, chain 2 of 2): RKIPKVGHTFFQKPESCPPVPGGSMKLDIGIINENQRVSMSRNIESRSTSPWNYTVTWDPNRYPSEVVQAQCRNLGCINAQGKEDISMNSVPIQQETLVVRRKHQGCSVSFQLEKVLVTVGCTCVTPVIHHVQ
binder,measurement,setting,value
"ML109-7D7 (antibody, V domains shown) VH: QVQLQQSGAELVRPGTSVTLSCKASGYRFTDYEIHWIKQTPAQVLEWIGVTDPESGGTLHNPKFDGKATLTADKSSRTAYMELRSLTSEDSAVYYCTRYYKYESFYGMDYWGQGTSVTVSS VL: QIVLTQSPAIMSAFPGEKVTMTCSASSSISYMCWYQQKPGTSPKRWICDTSKLASGVPVRFSGSGSGTSYSLTINSMETEDAATYYCQQRSSYPWTFGGGTKVEIKR","Potency (pM), IL-17-driven IL-6 production in HS27 cells",human IL-17A [1],81 pM
"ML109-8B12 (antibody, V domains shown) VH: QVQLKESGPGLVAPSQSLSITCTISGFSLTSYGVHWVRQPPGKGLEWLVVIWSDGTTTYNSALKSRLSITRDNSKSQVFLKMNSLQTDDTAIYYCARDSTWDYYYTMDYWGQGTPVTVSS VL: DVVMTQTPLSLPVSLGDQASISCRSSQSLVHSNGNTYLHWYLQKPGQSPKLLIYKVSNRFSGVPDRFSGSGSGTDFTLKISRVEAEDLGVYFCSQSTHVYTFGGGTKLEIKR","Potency (pM), IL-17-driven IL-6 production in HS27 cells",human IL-17A [1],137 pM
"IL17-h10F7.6 (antibody, V domains shown, IgG; constant regions not specified; also called h10F7.6 (VH.1a-Vk.1a)) VH: EVQLVQSGAEVKKPGSSVKVSCKASGYTFTDYEIHWVRQAPGQGLEWIGVNDPESGGTFYNQKFDGRATLTADKSTSTAYMELSSLRSEDTAVYYCTRYYRYESFYGMDYWGQGTTVTVSS VL: DIQLTQSPSSLSASVGDRVTITCSASSSISYIYWFQQKPGKSPKRWIYATFELASGVPSRFSGSGSGTDYTLTISSLQPEDFATYYCHQRSSYPWTFGQGTKLEIKR",EC50,human IL-17A [2],0.05 nM
same,"Potency (pM), IL-17-driven IL-6 production in HS27 cells",human IL-17A [3],264 pM
same,"Potency (pM), IL-17-driven IL-6 production in HS27 cells",cynomolgus monkey IL-17A [4],313 pM
same,Kd,human IL-17A [5],0.302 nM
same,koff,human IL-17A [5],0.000185 s⁻¹
same,kon,human IL-17A [5],612000 M⁻¹ s⁻¹
same,Kd,cynomolgus monkey IL-17A [6],0.217 nM
same,koff,cynomolgus monkey IL-17A [6],0.000154 s⁻¹
same,kon,cynomolgus monkey IL-17A [6],711000 M⁻¹ s⁻¹
same,Kd,mouse IL-17A,0.98 nM
same,koff,mouse IL-17A,0.000384 s⁻¹
same,kon,mouse IL-17A,392000 M⁻¹ s⁻¹
same,Kd,human IL-17A/F,1.14 nM
same,koff,human IL-17A/F,0.000696 s⁻¹
same,kon,human IL-17A/F,609000 M⁻¹ s⁻¹
same,Kd,rat IL-17A,0.919 nM
same,koff,rat IL-17A,0.000454 s⁻¹
same,kon,rat IL-17A,494000 M⁻¹ s⁻¹
"IL17-h10F7.15 (antibody, V domains shown, IgG; constant regions not specified) VH: EVQLVQSGAEVKKPGSSVKVSCKASGYTFTDYEIHWVRQAPGQGLEWIGVNDPESGGTFYNQKFDGRATLTADKSTSTAYMELSSLRSEDTAVYYCTRYYRYESFYGMDYWGQGTTVTVSS VL: EIVLTQSPSSLSASVGDRVTITCSASSSISYIYWFQQKPGKSPKRWIYATFELASGVPSRFSGSGSGTDYTLTISSLQPEDFATYYCHQRSSYPWTFGQGTKLEIKR",EC50,human IL-17A [2],0.14 nM
same,"Potency (pM), IL-17-driven IL-6 production in HS27 cells",human IL-17A [3],309 pM
same,"Potency (pM), IL-17-driven IL-6 production in HS27 cells",cynomolgus monkey IL-17A [4],499 pM
"IL17-h10F7.13 (antibody, V domains shown, IgG; constant regions not specified) VH: EVQLVQSGAEVKKPGSSVKVSCKASGYTFTDYEIHWVRQAPGQGLEWIGVNDPESGGTFYNQKFDGRATLTADKSTSTAYMELSSLRSEDTAVYYCTRYYRYESFYGMDYWGQGTTVTVSS VL: QIVLTQSPSSLSASVGDRVTITCSASSSISYIYWFQQKPGKSPKRWIYATFELASGVPSRFSGSGSGTDYTLTISSLQPEDFATYYCHQRSSYPWTFGQGTKLEIKR",EC50,human IL-17A [2],0.1 nM
same,"Potency (pM), IL-17-driven IL-6 production in HS27 cells",human IL-17A [3],242 pM
same,"Potency (pM), IL-17-driven IL-6 production in HS27 cells",cynomolgus monkey IL-17A [4],429 pM
"IL17-h10F7.17 (antibody, V domains shown, IgG; constant regions not specified) VH: EVQLVQSGAEVKKPGSSVKVSCKASGYTFTDYEIHWVRQAPGQGLEWIGVNDPESGGTFYNQKFDGRATLTADKSTSTAYMELSSLRSEDTAVYYCTRYYRYESFYGMDYWGQGTTVTVSS VL: QIVLTQSPDFQSVTPKEKVTITCSASSSISYIYWFQQKPDQSPKRWIYATFELASGVPSRFSGSGSGTDYTLTINSLEAEDAATYYCHQRSSYPWTFGQGTKLEIKR",EC50,human IL-17A [2],0.1 nM
same,"Potency (pM), IL-17-driven IL-6 production in HS27 cells",human IL-17A [3],510 pM
same,"Potency (pM), IL-17-driven IL-6 production in HS27 cells",cynomolgus monkey IL-17A [4],293 pM
